{"source": "patent US20090118184A1", "about": "(UNIVERSITY OF ROCHESTER, published 2009)", "binders": {"B1": {"name": "factor VIIIa A2 subunit, wild type (other)", "chain": "SVAKKHPKTWVHYIAAEEEDWDYAPLVLAPDDRSYKSQYLNNGPQRIGRKYKKVRFMAYTDETFKTREAIQHESGILGPLLYGEVGDTLLIIFKNQASRPYNIYPHGITDVRPLYSRRLPKGVKHLKDFPILPGEIFKYKWTVTVEDGPTKSDPRCLTRYYSSFVNMERDLASGLIGPLLICYKESVDQRGNQIMSDKRNVILFSVFDENRSWYLTENIQRFLPNPAGVQLEDPEFQASNIMHSINGYVFDSLQLSVCLHEVAYWYILSIGAQTDFLSVFFSGYTFKHKMVYEDTLTLFPFSGETVFMSMENPGLWILGCHNSDFRNRGMTALLKVSSCDKNTGDYYEDSYEDISAYLLSKNNAIEPR"}}, "assay_in_all_cases": "cell-based or functional assay", "key": {"[1]": {"biological_target": "T1, factor VIIIa A1/A3C1C2 dimer, Glu272Val (human, UniProt P00451 20-391; P00451 1709-2351)", "T1 chain 1": "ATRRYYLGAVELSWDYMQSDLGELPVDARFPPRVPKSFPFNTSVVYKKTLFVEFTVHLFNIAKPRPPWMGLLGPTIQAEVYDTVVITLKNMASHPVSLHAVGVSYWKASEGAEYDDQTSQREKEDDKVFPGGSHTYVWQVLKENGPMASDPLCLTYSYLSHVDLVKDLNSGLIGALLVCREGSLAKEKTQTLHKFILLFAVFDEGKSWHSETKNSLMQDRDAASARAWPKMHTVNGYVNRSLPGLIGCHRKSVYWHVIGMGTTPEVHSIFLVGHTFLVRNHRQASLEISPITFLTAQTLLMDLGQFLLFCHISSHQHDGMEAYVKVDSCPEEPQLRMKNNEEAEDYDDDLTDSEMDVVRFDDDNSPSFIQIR", "T1 chain 2": "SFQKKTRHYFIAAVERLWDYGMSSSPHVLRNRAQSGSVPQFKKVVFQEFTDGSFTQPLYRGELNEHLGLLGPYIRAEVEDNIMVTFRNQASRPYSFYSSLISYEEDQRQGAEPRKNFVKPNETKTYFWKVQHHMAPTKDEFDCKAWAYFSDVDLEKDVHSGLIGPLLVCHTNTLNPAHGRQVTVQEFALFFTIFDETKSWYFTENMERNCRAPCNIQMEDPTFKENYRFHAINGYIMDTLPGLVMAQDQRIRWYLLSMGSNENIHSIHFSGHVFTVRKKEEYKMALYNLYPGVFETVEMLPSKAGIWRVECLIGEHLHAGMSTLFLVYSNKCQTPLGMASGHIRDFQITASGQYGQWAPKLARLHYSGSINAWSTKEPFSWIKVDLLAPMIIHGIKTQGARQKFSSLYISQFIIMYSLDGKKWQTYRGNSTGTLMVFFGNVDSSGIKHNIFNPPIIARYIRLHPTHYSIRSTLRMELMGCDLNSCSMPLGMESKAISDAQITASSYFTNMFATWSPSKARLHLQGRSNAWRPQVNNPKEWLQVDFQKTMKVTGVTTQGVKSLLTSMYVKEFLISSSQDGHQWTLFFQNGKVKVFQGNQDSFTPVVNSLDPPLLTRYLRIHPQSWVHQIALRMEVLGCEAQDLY"}, "[2]": {"biological_target": "T2, factor VIIIa A1/A3C1C2 dimer, Glu1984Ala (human, UniProt P00451 20-391; P00451 1709-2351)", "T2 sequence 1": "T1 chain 1 with V272E", "T2 sequence 2": "T1 chain 2 with E295A"}, "[3]": {"biological_target": "T3, factor VIIIa A1/A3C1C2 dimer, Glu1984Val (human, UniProt P00451 20-391; P00451 1709-2351)", "T3 sequence 1": "T1 chain 1 with V272E", "T3 sequence 2": "T1 chain 2 with E295V"}}, "note": "Changes are numbered by the printed parent chain.", "data": [{"binder": "B1", "values": [{"measurement": "Factor VIIIa Decay relative to the WT value, Factor IXa absent", "setting": "[1]", "value": "2.72 relative to WT"}, {"measurement": "Factor VIIIa Decay relative to the WT value, Factor IXa present", "setting": "[1]", "value": "1.03 relative to WT"}, {"measurement": "Factor VIIIa Decay, Factor IXa absent", "setting": "[1]", "value": 0.227, "unit": "min⁻¹"}, {"measurement": "Factor VIIIa Decay, Factor IXa present", "setting": "[1]", "value": 0.0159, "unit": "min⁻¹"}, {"measurement": "Factor VIIIa Decay relative to the WT value, Factor IXa absent", "setting": "[2]", "value": "0.29 relative to WT"}, {"measurement": "Factor VIIIa Decay relative to the WT value, Factor IXa present", "setting": "[2]", "value": "0.18 relative to WT"}, {"measurement": "Factor VIIIa Decay, Factor IXa absent", "setting": "[2]", "value": 0.0241, "unit": "min⁻¹"}, {"measurement": "Factor VIIIa Decay, Factor IXa present", "setting": "[2]", "value": 0.0027, "unit": "min⁻¹"}, {"measurement": "Factor VIIIa Decay relative to the WT value, Factor IXa absent", "setting": "[3]", "value": "0.26 relative to WT"}, {"measurement": "Factor VIIIa Decay relative to the WT value, Factor IXa present", "setting": "[3]", "value": "0.13 relative to WT"}, {"measurement": "Factor VIIIa Decay, Factor IXa absent", "setting": "[3]", "value": 0.0217, "unit": "min⁻¹"}, {"measurement": "Factor VIIIa Decay, Factor IXa present", "setting": "[3]", "value": 0.0019, "unit": "min⁻¹"}]}]}
